Data: publication doi:10.1101/2022.08.26.505362

Key:
[1] = target: fibrillin (molecule within bovine ciliary zonule microfibrils) (bovine (endogenous in ciliary zonule)) (UniProt P98133); test: cryo-EM structure; conditions: scale: fibrillin monomers per microfibril repeat
[2] = target: fibrillin microfibrils purified from bovine ciliary zonules (bovine (endogenous in ciliary zonule)) (UniProt P98133); test: STEM mass mapping; conditions: scale: molecules of LTBP-1 per microfibril repeat
fibrillin microfibrils purified from bovine ciliary zonules (bovine (endogenous in ciliary zonule)), sequence (P98133 25-2871): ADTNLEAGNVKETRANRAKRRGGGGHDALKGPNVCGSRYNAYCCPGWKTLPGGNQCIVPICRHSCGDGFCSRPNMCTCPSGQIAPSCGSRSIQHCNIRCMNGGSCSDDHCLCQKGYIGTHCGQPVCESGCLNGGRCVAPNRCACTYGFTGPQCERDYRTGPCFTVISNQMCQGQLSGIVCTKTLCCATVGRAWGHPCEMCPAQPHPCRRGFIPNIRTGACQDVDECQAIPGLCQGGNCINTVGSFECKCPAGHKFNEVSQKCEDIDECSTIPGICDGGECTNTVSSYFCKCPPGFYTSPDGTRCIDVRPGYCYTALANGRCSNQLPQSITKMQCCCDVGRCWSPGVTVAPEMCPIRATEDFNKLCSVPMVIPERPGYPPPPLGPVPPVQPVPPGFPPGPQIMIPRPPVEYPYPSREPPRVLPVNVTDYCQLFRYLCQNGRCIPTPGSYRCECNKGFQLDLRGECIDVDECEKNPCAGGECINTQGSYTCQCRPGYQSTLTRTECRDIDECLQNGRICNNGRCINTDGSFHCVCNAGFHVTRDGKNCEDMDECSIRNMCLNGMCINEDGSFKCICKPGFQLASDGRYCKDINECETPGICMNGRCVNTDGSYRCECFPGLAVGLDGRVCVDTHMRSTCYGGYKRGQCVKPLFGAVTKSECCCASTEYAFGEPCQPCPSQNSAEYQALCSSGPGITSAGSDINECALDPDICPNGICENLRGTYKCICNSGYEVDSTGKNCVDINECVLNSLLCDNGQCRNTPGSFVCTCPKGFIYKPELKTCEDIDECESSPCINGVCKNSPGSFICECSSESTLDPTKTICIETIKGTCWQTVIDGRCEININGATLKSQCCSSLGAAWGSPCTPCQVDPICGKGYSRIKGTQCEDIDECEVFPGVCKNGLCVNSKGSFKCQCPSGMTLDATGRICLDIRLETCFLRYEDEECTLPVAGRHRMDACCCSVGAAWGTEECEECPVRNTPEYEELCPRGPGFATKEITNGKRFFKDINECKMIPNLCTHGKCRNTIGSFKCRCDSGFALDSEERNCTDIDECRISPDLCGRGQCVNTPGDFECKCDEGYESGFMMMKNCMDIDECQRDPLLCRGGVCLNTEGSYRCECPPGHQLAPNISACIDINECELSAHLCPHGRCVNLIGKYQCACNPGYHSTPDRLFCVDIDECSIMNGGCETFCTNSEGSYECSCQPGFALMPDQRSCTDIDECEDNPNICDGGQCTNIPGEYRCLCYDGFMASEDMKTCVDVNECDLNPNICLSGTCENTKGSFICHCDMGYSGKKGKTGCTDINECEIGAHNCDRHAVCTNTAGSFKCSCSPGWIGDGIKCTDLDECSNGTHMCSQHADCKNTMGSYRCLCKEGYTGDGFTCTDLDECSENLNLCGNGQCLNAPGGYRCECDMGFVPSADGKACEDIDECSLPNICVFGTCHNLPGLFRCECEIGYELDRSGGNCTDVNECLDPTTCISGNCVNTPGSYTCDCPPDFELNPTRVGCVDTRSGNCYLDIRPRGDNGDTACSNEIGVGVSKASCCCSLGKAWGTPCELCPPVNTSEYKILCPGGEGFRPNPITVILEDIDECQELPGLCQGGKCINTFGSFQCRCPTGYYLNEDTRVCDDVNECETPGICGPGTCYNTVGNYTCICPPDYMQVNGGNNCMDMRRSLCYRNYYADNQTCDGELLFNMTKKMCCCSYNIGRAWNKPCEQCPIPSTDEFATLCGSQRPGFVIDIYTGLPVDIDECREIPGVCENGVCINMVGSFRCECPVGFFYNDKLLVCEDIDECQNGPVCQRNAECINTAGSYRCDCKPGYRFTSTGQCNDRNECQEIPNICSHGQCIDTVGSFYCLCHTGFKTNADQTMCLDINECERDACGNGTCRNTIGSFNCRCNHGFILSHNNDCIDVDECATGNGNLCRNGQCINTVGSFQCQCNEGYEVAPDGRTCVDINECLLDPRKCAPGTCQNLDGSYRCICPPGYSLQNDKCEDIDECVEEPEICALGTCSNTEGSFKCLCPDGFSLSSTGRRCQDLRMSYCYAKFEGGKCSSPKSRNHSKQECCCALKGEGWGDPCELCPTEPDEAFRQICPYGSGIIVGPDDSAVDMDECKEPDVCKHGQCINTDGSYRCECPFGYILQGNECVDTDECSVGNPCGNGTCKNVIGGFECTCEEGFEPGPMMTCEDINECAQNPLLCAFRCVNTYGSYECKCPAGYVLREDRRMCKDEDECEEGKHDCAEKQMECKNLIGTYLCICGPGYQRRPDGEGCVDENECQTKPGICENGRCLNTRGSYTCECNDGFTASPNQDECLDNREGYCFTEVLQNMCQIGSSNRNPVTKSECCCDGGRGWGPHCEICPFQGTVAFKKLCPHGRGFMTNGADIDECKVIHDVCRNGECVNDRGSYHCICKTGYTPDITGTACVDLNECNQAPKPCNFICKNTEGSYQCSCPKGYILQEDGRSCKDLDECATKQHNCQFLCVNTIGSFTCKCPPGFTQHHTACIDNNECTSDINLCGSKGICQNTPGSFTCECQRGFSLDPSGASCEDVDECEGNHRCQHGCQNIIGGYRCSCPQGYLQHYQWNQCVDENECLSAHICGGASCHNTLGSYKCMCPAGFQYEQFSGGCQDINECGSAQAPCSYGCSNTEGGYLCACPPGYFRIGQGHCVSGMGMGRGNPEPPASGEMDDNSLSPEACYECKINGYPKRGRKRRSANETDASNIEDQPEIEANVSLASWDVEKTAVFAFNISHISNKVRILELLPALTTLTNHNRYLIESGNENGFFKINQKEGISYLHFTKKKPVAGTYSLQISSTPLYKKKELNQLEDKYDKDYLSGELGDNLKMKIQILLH

fibrillin (molecule within bovine ciliary zonule microfibrils), sequence (P98133 25-2871): as above

stoichiometry N [1]	stoichiometry N [2]	Substance
8		fibrillin (molecule within bovine ciliary zonule microfibrils) (from UniProt P98133 25-2871) (natural protein)
	2	full-length LTBP-1 (latent TGFβ-binding protein-1) (from UniProt Q14766 24-1721) (natural protein)
